Reference: PMC4509486, “Inside-out Ca^2+ signalling prompted by STIM1 conformational switch” (Nature Communications, 2015)

Experiments:
[1] = target: the molecule itself; test: SEC-MALS; Superdex 200 10/300 GL; 500 μl of 10–100 μM protein; 20 mM Tris-HCl pH 7.3, 150 mM NaCl, 2 mM dithiothreitol, 0.6% N-lauroylsarcosine; 0.3 ml/min
[2] = target: the molecule itself; test: cross-linking; copper-phenanthroline (1 mM CuSO4/3 mM 1,10-phenanthroline) disulfide cross-linking of purified protein (1 mg/ml) in 20 mM HEPES pH 7.4, 150 mM NaCl, 1 mM TCEP, on ice 15 min; non-reducing SDS-PAGE; efficiency = dimer/(monomer + dimer)
[3] = target: the molecule itself; test: FRET or BRET; inter-subunit FRET between FITC- and TMR-labelled monocysteine TM-CC1 in PBS pH 7.3, 1% OG, 1 mM TCEP; excitation 475 nm
[4] = target: the molecule itself; test: SEC + native gel or EMSA; in vitro, with or without Ca^2+; detergents needed to keep the proteins soluble

B1: GB1-TM-CC1 (STIM1 residues 209–310), wild type (domain or fragment, UniProt Q13586 209-310, looked up)
chain: NHLKDFMLVVSIVIGVGGCWFAYIQNRYSKEHMKKMMKDLEGLHRAEQSLHDLQERLHKAQEEHRTVEVEKVHLEKKLRDEINLAKQEAQRLKELREGTENE
notes: STIM1 residues 209-310 (transmembrane domain and CC1); also called STIM1_(209–310); WT; source: E. coli BL21 (DE3), purified (Ni-NTA, gel filtration); not shown: GB1, N-terminal, kept
**Q.** How did the “stoichiometry N” value [1] turn out when B1 was run?
**A.** Its value is 2.

B2: GB1-TM-CC1 monocysteine variant F229C on the C227W background (domain or fragment, UniProt Q13586 209-310, looked up)
chain: NHLKDFMLVVSIVIGVGGWWCAYIQNRYSKEHMKKMMKDLEGLHRAEQSLHDLQERLHKAQEEHRTVEVEKVHLEKKLRDEINLAKQEAQRLKELREGTENE
notes: STIM1 residues 209-310; also called F229C (C227W); source: E. coli BL21 (DE3), purified; not shown: GB1, N-terminal, kept
**Q.** Does B2 bind [2]?
**A.** Result: binds

B3: TM-CC1 monocysteine variant F214C on the C227W background, labelled with FITC or TMR (domain or fragment, UniProt Q13586 209-310, looked up)
chain: NHLKDCMLVVSIVIGVGGWWFAYIQNRYSKEHMKKMMKDLEGLHRAEQSLHDLQERLHKAQEEHRTVEVEKVHLEKKLRDEINLAKQEAQRLKELREGTENE
modifications: FITC-maleimide or TMR-maleimide on the single cysteine (F214C)
notes: STIM1 residues 209-310 (TM-CC1); also called F214C (C227W TM-CC1); source: E. coli BL21 (DE3), purified, dye-labelled
**Q.** Does B3 bind [3]?
**A.** Result: binds

B4: TM-CC1 monocysteine variant N234C on the C227W background, labelled with FITC or TMR (domain or fragment, UniProt Q13586 209-310, looked up)
chain: NHLKDFMLVVSIVIGVGGWWFAYIQCRYSKEHMKKMMKDLEGLHRAEQSLHDLQERLHKAQEEHRTVEVEKVHLEKKLRDEINLAKQEAQRLKELREGTENE
modifications: FITC-maleimide or TMR-maleimide on the single cysteine (N234C)
notes: STIM1 residues 209-310 (TM-CC1); also called N234C (C227W TM-CC1); source: E. coli BL21 (DE3), purified, dye-labelled
**Q.** Does B4 bind [3]?
**A.** Result: binds

B5: GB1-TM-CC1 (STIM1 residues 209–310) C227W (domain or fragment, UniProt Q13586 209-310, looked up)
chain: NHLKDFMLVVSIVIGVGGWWFAYIQNRYSKEHMKKMMKDLEGLHRAEQSLHDLQERLHKAQEEHRTVEVEKVHLEKKLRDEINLAKQEAQRLKELREGTENE
notes: STIM1 residues 209-310; also called TM-CC1-C227W; source: E. coli BL21 (DE3), purified (Ni-NTA, gel filtration); not shown: GB1, N-terminal, kept
**Q.** With B5 as the protein, how does the “stoichiometry N” value [1] read?
**A.** The value was 2.

B6: STIM1 1–342 (characterized in vitro) (domain or fragment, UniProt Q13586 23-342, looked up)
chain: LSHSHSEKATGTSSGANSEESTAAEFCRIDKPLCHSEDEKLSFEAVRNIHKLMDDDANGDVDVEESDEFLREDLNYHDPTVKHSTFHGEDKLISVEDLWKAWKSSEVYNWTVDEVVQWLITYVELPQYEETFRKLQLSGHAMPRLAVTNTTMTGTVLKMTDRSHRQKLQLKALDTVLFGPPLLTRHNHLKDFMLVVSIVIGVGGCWFAYIQNRYSKEHMKKMMKDLEGLHRAEQSLHDLQERLHKAQEEHRTVEVEKVHLEKKLRDEINLAKQEAQRLKELREGTENERSRQKYAEEELEQVREALRKAEKELESHSSWY
notes: signal peptide in the construct; it may be the CFP fusion m18
**Q.** Which “stoichiometry N” value [4] does the source give for B6 here?
**A.** The value was 2.

B7: GB1-TM-CC1 monocysteine variant I220C on the C227S background (domain or fragment, UniProt Q13586 209-310, looked up)
chain: NHLKDFMLVVSCVIGVGGSWFAYIQNRYSKEHMKKMMKDLEGLHRAEQSLHDLQERLHKAQEEHRTVEVEKVHLEKKLRDEINLAKQEAQRLKELREGTENE
notes: STIM1 residues 209-310; also called I220C (C227S); source: E. coli BL21 (DE3), purified; not shown: GB1, N-terminal, kept
**Q.** Does B7 bind [2]?
**A.** Result: binds

B8: GB1-TM-CC1 monocysteine variant I220C on the C227W background (domain or fragment, UniProt Q13586 209-310, looked up)
chain: NHLKDFMLVVSCVIGVGGWWFAYIQNRYSKEHMKKMMKDLEGLHRAEQSLHDLQERLHKAQEEHRTVEVEKVHLEKKLRDEINLAKQEAQRLKELREGTENE
notes: STIM1 residues 209-310; also called I220C (C227W); source: E. coli BL21 (DE3), purified; not shown: GB1, N-terminal, kept
**Q.** Does B8 bind [2]?
**A.** Result: binds

B9: GB1-TM-CC1 monocysteine variant F229C on the C227S background (domain or fragment, UniProt Q13586 209-310, looked up)
chain: NHLKDFMLVVSIVIGVGGSWCAYIQNRYSKEHMKKMMKDLEGLHRAEQSLHDLQERLHKAQEEHRTVEVEKVHLEKKLRDEINLAKQEAQRLKELREGTENE
notes: STIM1 residues 209-310; also called F229C (C227S); source: E. coli BL21 (DE3), purified; not shown: GB1, N-terminal, kept
**Q.** Does B9 bind [2]?
**A.** Result: binds
